Experimental data published in article PMC7717530, “EphA7 isoforms differentially regulate cortical dendrite development” (PLoS ONE, 2020).

Biological target: EphA7 full-length isoform with hemagglutinin tag (EphA7-FL-HA) (UniProt Q61772-1 28-998)
Test: cell-based or functional assay

Chain of EphA7 full-length isoform with hemagglutinin tag (EphA7-FL-HA) (Q61772 28-998): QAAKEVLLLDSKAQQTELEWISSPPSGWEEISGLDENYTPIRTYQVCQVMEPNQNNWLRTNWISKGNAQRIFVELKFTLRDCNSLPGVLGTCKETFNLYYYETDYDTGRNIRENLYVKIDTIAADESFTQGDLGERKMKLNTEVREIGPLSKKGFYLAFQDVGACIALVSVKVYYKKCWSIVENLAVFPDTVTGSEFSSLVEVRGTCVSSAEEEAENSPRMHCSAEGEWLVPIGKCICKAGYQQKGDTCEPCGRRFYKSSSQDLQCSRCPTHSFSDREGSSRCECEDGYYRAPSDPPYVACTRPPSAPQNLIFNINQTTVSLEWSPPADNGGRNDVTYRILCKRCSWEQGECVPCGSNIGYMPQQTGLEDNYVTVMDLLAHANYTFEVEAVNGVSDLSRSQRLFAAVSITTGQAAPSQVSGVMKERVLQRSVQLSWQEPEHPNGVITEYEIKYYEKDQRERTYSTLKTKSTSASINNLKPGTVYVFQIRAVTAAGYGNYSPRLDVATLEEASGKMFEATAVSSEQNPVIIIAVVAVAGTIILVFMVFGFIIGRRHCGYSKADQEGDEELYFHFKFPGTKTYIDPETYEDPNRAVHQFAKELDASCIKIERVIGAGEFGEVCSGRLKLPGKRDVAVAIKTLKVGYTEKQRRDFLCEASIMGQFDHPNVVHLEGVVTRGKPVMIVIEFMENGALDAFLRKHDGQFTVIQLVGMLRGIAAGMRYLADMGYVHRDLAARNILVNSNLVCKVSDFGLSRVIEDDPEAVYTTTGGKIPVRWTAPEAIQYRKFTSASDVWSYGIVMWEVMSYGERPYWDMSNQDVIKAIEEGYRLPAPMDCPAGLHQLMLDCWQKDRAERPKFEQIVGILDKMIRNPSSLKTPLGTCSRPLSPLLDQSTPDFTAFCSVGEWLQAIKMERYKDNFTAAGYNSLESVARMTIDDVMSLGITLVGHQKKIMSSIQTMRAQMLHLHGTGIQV

B1: EphA7 truncated isoform with myc tag (EphA7-T1-myc) (receptor)
chain: not shown
EphA7-FL tyrosine phosphorylation (phospho-tyrosine over total HA after HA IP) in HEK cells stimulated with clustered ephrin-A5-hFC, at EphA7-T1:FL ratios 1:1 (65%) and 5:1 (42%) compared to 0.2:1: 65 % of EphA7-FL tyrosine phosphorylation compared to a ratio of 0.2:1
